Results on one substance are retold here after article PMC4207781.

For this experiment, the target named is Fc gamma receptor IIb (FcγRIIb) on GM-CSF macrophages (human (endogenous in monocyte-derived macrophages)) (UniProt P31994).
Sequence of UniProt P31994 (P31994 43-217): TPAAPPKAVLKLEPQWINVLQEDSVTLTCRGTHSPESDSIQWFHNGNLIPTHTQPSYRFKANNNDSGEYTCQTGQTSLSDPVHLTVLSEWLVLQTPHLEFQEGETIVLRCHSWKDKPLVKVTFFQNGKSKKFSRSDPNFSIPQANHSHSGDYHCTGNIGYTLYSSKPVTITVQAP

In turn, “heat-aggregated immune complexes (IC) of human IgG” showed a reduction of TNFα release by gmMφ co-cultured 1:5 with cytokine activated T cells (Tck) for 20 h, with ICs (50 µg/ml) of 50%.
